Laboratory results published in patent publication US9394555B2, “Compositions comprising a polypeptide having cellulolytic enhancing activity and a dioxy compound and uses thereof” (priority 2010, dated 2016).

Columns and labels:
Format in all cases: biochemical
[1] = biological target: T1, T. aurantiacus GH61A polypeptide (Thermoascus aurantiacus, UniProt G3XAP7, N13Y); assay: Bacterial cellulose conversion assay (Examples 15, 16); settings: A. oryzae CEL3A beta-glucosidase (50 mg protein per g cellulose) only; 72 hours, 50° C.
T1 sequence (G3XAP7 whole entry N13Y): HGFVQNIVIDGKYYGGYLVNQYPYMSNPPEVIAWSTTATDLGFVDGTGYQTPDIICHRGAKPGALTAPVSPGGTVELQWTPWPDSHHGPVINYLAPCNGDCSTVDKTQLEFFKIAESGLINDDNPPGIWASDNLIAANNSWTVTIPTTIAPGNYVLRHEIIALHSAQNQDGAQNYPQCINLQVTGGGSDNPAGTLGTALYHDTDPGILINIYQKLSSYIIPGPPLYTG
Method: Bacterial cellulose was prepared from NATA DE COCO (Huerto International Trading, Lucena City, Philippines) by extensive rinsing of one 500 ml can of cubes with water followed by homogenation for 15 minutes in 0.25 M sodium hydroxide using a WARING BLENDER® (Waring Products, Torrington, Conn., USA). The resulting slurry was pelleted at 40,000×g in a SORVALL® RT7 centrifuge. The supernatant was discarded. The pellet was then resuspended in 0.25 M sodium hydroxide and stirred overnight at 4° C. This procedure was repeated four times. Following the first washing steps, the cellulose was washed six times under similar conditions, substituting water for 0.25 M sodium hydroxide. Following the water washing, the cellulose was again homogenized for 15 minutes in a WARING BLENDER®, and adjusted to a final volume of 250 ml.
A 0.36% bacterial cellulose slurry was prepared as described in Example 14. This 0.36% slurry was thoroughly resuspended by shaking, and quickly transferred to a 100 ml beaker and stirred rapidly with a magnetic stirrer. Seven hundred μl aliquots of the bacterial cellulose slurry were pipetted into wells of a 2.0 ml 96-deepwell plate (Axygen, Union City, Calif.) using a 1000 μl micropipette with a wide aperture tip (end of tip cut off about 2 mm from the base). One hundred μl of 10 mM MnSO4-500 mM sodium acetate pH 5 was then added to each well. One hundred μl of either deionized water, a 1% gallic acid solution dissolved in water, or a 1% gallic acid solution containing 50 mM EDTA were added to each well. Enzyme mixtures were prepared and then added simultaneously to all wells in a volume of 100 μl, for a total of 1 ml in each reaction. […] All experiments reported were performed in triplicate.
(§1) Primary analysis of the hydrolysis reactions was performed using an AGILENT® 1100 HPLC with CHEMSTATION® software equipped with an AMINEX™ HPX-87H column. After approximately 4 days, the deep-well plate was removed from the incubator and chilled overnight to 4° C. The plate was then mixed well by inversion and briefly centrifuged 52×g in a SORVALL® RT7 centrifuge for 10 seconds. Samples were then mixed by pipetting, and 200 μl from each well were transferred to a MULTISCREEN® HV centrifuge filter plate assembly. The centrifuge filter plate assembly was centrifuged at 2000 rpm in a SORVALL® RT7 centrifuge for 20 minutes. […] Sugars were detected using a refractive index detector with quantification by integration compared to purified sugar standards.
(§2) All HPLC data processing was performed using MICROSOFT EXCEL™ software. […] In this assay only glucose was measured since beta-glucosidase was at high levels in all samples but the controls. Percent conversion was determined using Equation 1. Triplicate data points were averaged and standard deviation was calculated.
The bacterial cellulose hydrolysis assay was performed as described in Example 15.
Data was collected and analyzed, as described in Example 15, after 72 hours of incubation at 50° C.

[2] = biological target: T1, T. aurantiacus GH61A polypeptide; assay: Phosphoric acid swollen cellulose (PASC) hydrolysis assay (Examples 18, 19); settings: A. oryzae CEL3A beta-glucosidase (20 mg protein per g cellulose) only; 72 hours, 50° C.
Method: A 1% phosphoric acid swollen cellulose (PASC) slurry was prepared from AVICEL® PH101 using the protocol described by Zhang et al., 2006, Biomacromolecules 7: 644-648.
The 1.0% PASC slurry prepared as described in Example 17 was thoroughly resuspended by shaking, and quickly transferred to a 100 ml beaker and stirred rapidly with a magnetic stirrer. Five hundred μl aliquots of the 1.0% PASC slurry were pipetted into wells of a 2.0 ml 96-deepwell plate (Axygen, Union City, Calif., USA) using a 1000 μl micropipette with a wide aperture tip (end of tip cut off about 2 mm from the base). One hundred μl of 10 mM MnSO4-500 mM sodium acetate pH 5 were then added to each well. […]
Primary analysis of the hydrolysis reactions was performed using an AGILENT® 1100 HPLC with CHEMSTATION® software equipped with an AMINEX™ HPX-87H column. […] Sugars were detected using a refractive index detector with quantification by integration compared to purified sugar standards.
as §2, with “calculated” for “determined”, “calculated. […]” for “calculated.”
Data were collected and analyzed, as described in Example 18, after 72 hours of incubation at 50° C.

[3] = biological target: T1, T. aurantiacus GH61A polypeptide; assay: Phosphoric acid swollen cellulose (PASC) conversion assay (Examples 20, 21); settings: A. oryzae CEL3A beta-glucosidase (20 mg protein per g cellulose) only; 72 hours, 50° C.
Method: A 1.0% PASC slurry was prepared as described in Example 17. Ten ml of the 1.0% PASC slurry, 10 ml of H2O, and […] of dioxy compound were thoroughly mixed by shaking,
Five hundred μl aliquots of the 0.50% phosphoric acid swollen cellulose/0.05% dioxy compound slurry were pipetted into wells of a 2.0 ml 96-deepwell plate (Axygen, Union City, Calif., USA) using a 1000 μl micropipette with a wide aperture tip (end of tip cut off about 2 mm from the base). One hundred μl of 10 mM MnSO4-500 mM sodium acetate pH 5 were then added to each well. Two hundred μl of deionized water were added to each well. Enzyme mixtures were prepared and then added simultaneously to all wells in a volume of 200 μl, for a total of 1 ml in each reaction. […] All experiments reported were performed in triplicate.
as §1
as §2, with “calculated” for “determined”
The PASC assay was performed as described in Example 20.
Data were collected and analyzed, as described in Example 20, after 72 hours of incubation at 50° C.

B1: A. oryzae CEL3A beta-glucosidase: CEL3A beta-glucosidase (SEQ ID NO: 112), recombinantly prepared as described in WO 2004/099228 (protein, listed as Aspergillus oryzae)
chain: MKLGWIEVAALAAASVVSAKDDLAYSPPFYPSPWADGQGEWAEVYKRAVDIVSQMTLTEKVNLTTGTGWQLERCVGQTGSVPRLNIPSLCLQDSPLGIRFSDYNSAFPAGVNVAATWDKTLAYLRGQAMGEEFSDKGIDVQLGPAAGPLGAHPDGGRNWEGFSPDPALTGVLFAETIKGIQDAGVIATAKHYIMNEQEHFRQQPEAAGYGFNVSDSLSSNVDDKTMHELYLWPFADAVRAGVGAVMCSYNQINNSYGCENSETLNKLLKAELGFQGFVMSDWTAHHSGVGAALAGLDMSMPGDVTFDSGTSFWGANLTVGVLNGTIPQWRVDDMAVRIMAAYYKVGRDTKYTPPNFSSWTRDEYGFAHNHVSEGAYERVNEFVDVQRDHADLIRRIGAQSTVLLKNKGALPLSRKEKLVALLGEDAGSNSWGANGCDDRGCDNGTLAMAWGSGTANFPYLVTPEQAIQNEVLQGRGNVFAVTDSWALDKIAAAARQASVSLVFVNSDSGEGYLSVDGNEGDRNNITLWKNGDNVVKTAANNCNNTVVIIHSVGPVLIDEWYDHPNVTGILWAGLPGQESGNSIADVLYGRVNPGAKSPFTWGKTRESYGSPLVKDANNGNGAPQSDFTQGVFIDYRHFDKFNETPIYEFGYGLSYTTFELSDLHVQPLNASRYTPTSGMTEAAKNFGEIGDASEYVYPEGLERIHEFIYPWINSTDLKASSDDSNYGWEDSKYIPEGATDGSAQPRLPASGGAGGNPGLYEDLFRVSVKVKNTGNVAGDEVPQLYVSLGGPNEPKVVLRKFERIHLAPSQEAVWTTTLTRRDLANWDVSAQDWTVTPYPKTIYVGNSSRKLPLQASLPKAQ
Question: Which results are given for B1?
Answer: conversion of the bacterial cellulose [1]: 2.4±2.9%; conversion of PASC [2]: 2.4±0.5%; conversion of the phosphoric acid swollen cellulose [3]: 2.0±0.1%
